The subject of this assay is Cord blood-derived CD4+/CD25- cells. The assay can be described thus: Priming of naive CD4+ T cells to Melan-A/MART-1 or NY-ESO-1 with DCs pre-incubated with MMP-2. Type of assay: cell-based, human. The procedure: (A) Cord blood-derived CD4^+/CD25^− cells were stimulated with autologous poly(I:C)-matured DCs pulsed with overlapping peptides spanning either Melan-A/MART-1 or NY-ESO-1. Prior to poly(I:C) addition, DCs were incubated with or without MMP-2 (active or heat-inactivated) for 1 h. MMP-2 enzymatic activity was controlled (FIG. 13C-D). After 15 days, CD4^+ T cells were stimulated with the Melan-A/MART-1 or NY-ESO-1 peptide pools (2 μM) for 6 h before intracellular staining of cytokines. Percentages of antigen-specific CD4^+ T cells, secreting indicated cytokines, are represented for all donors. (B) Contour plots showing percentages of cytokine-producing CD4^+ T cells are shown for representative donor CB45 primed to Melan-A/MART-1. Percentage of secreting cells upon peptide stimulation was considered specific/positive when it exceeded by more than twofold the background (cytokine-secreting cells in the absence of stimulation) and had more than 0.5% of responding cells (after background subtraction) for at least one cytokine. For each cytokine, 2 paired t-tests were used to compare priming in the presence of active MMP-2 to either priming in the absence of active MMP-2 or with HI MMP-2. The Bonferroni adjustment was used for multiple comparisons. P values≦0.025 (*) were considered statistically significant using a Bonferroni correction for 2 comparisons.
T Cell culture, stimulation and priming. Peripheral blood mononuclear cells (PBMCs) were purified from healthy donor-(HD) or cord blood donor-(CB) derived buffy coats (New York Blood Center) by Ficoll-Paque Plus (GE Healthcare) centrifugation. CD4^+/CD25^− cells were enriched (>90%) by magnetic cell sorting (Miltenyi Biotec) and primed/stimulated for 12-15 days either with irradiated (35Gy) autologous CD4^− cells or with autologous mature DCs in IMDM (GIBCO) supplemented with 1 mM HEPES (Life Technologies), 2 mM L-glutamine (Sigma), streptomycin (100 UI/mL)/penicillin (100 μg/mL) (Sigma) and 5% heat inactivated pooled human serum (PHS; Valley Biomedical) in the presence of rhIL-2 (10 UI/mL) and IL7 (5 ng/mL) (R&D Systems). Antigen presenting cells (CD4^− cells or DCs) were loaded either with peptides (2 μM) or with the MMP-2 protein (10 μg/mL) for 2 and 5 h, respectively. DCs were matured using the TLR3 agonist poly(I:C) at 5 μg/mL/10^6 DCs (Amersham). To generate T cell clones, we originally relied on our published methodology (Godefroy et al., 2006; Godefroy et al., 2007; the entire contents of each of which is incorporated herein by reference), involving enrichment of IFNγ-secreting cells upon short-term culture and peptide stimulation to generate MMP-2 responsive clones. Briefly, CD4^+ T cells were stimulated by CD4^− cells irradiated and pulsed with peptides for 12 days in the presence of rhIL-2 and rhIL-7. CD4^+ T cells were then restimulated with peptides for 3 hours before capturing IFNγ-secreting specific cells using a bispecific antibody coating T cells and capturing produced IFNγ. Positive cells were purified magnetically before being cloned. Although MMP-2-specific cells could be isolated, it was realized that IFNγ secretion was marginal compared to their secretion of IL-4 and TNFα. IFNγ-secreting cells in response to MMP-2 peptide pool were enriched by cytokine-guided magnetic cell sorting (Miltenyi Biotec) as described above and cloned the following day by limiting dilution in the presence of irradiated allogeneic PBMCs, 1 μg/mL phytohemagglutinin-L (Sigma) and 150 UI/mL rhIL-2. Tumor infiltrating lymphocytes (TILs) were provided by Pr. F. Jotereau and B. Dréno. They were obtained from tumor-invaded lymph nodes of melanoma patients (stage Mb) and expanded ex vivo. These patients received autologous TILs and IL-2 infusions in a clinical trial (Labarriere et al., 2002). This protocol was approved by the Institutional Ethics Committee and registered with regulatory state authority in France (Nantes). […]

Setting [1] is: DCs pre-incubated before poly(I:C) maturation.

The text below walks through data of patent US9395368B2, “Methods, agents and peptides for inducing an immune response to matrix metalloproteinase-2 expressing tumors” (New York University, priority 2010, dated 2016).

B1: active MMP-2: Purified human MMP-2 (mixture of the proenzyme (50%) and the active form (50%)) purchased from Biomol (protein, listed as Homo sapiens)
chain: MEALMARGALTGPLRALCLLGCLLSHAAAAPSPIIKFPGDVAPKTDKELAVQYLNTFYGCPKESCNLFVLKDTLKKMQKFFGLPQTGDLDQNTIETMRKPRCGNPDVANYNFFPRKPKWDKNQITYRIIGYTPDLDPETVDDAFARAFQVWSDVTPLRFSRIHDGEADIMINFGRWEHGDGYPFDGKDGLLAHAFAPGTGVGGDSHFDDDELWTLGEGQVVRVKYGNADGEYCKFPFLFNGKEYNSCTDTGRSDGFLWCSTTYNFEKDGKYGFCPHEALFTMGGNAEGQPCKFPFRFQGTSYDSCTTEGRTDGYRWCGTTEDYDRDKKYGFCPETAMSTVGGNSEGAPCVFPFTFLGNKYESCTSAGRSDGKMWCATTANYDDDRKWGFCPDQGYSLFLVAAHEFGHAMGLEHSQDPGALMAPIYTYTKNFRLSQDDIKGIQELYGASPDIDLGTGPTPTLGPVTPEICKQDIVFDGIAQIRGEIFFFKDRFIWRTVTPRDKPMGPLLVATFWPELPEKIDAVYEAPQEEKAVFFAGNEYWIYSASTLERGYPKPLTSLGLPPDVQRVDAAFNWSKNKKTYIFAGDKFWRYNEVKKKMDPGFPKLIADAWNAIPDNLDAVVDLQGGGHSYFFKGAYYLKLENQSLKSVKFGSIKSDWLGC
With B1, for the setting “10 cord blood donors, 15 days”, the “antigen-specific CD4+ T cells secreting IL-4, mean” value is 2.50% and the “antigen-specific CD4+ T cells secreting IL-13, mean” value is recorded as 0.08%. In addition, under setting [1], the “IL-4, mean of differences versus priming without MMP-2” value is reported as 1.85 and the “IL-13, mean of differences versus priming without MMP-2” value is listed as 0.07. Besides, the “production of type-1 cytokines (IFNγ and IL-2) upon peptide re-stimulation” value (Melan-A/MART-1- and NY-ESO-1-specific primed CD4+ T cells) is “failed to produce”.
